Results reported in publication PMC11316652.

Biological target: MSLN-Fc2 (Mesothelin-antibody Fc fusion protein) (human)
Test: SPR

| Substance | Kd [µM] |
| --- | --- |
| Muc16 SEA10 module, uncleaved (with the Siderocalin fusion partner) (domain or fragment) | 0.899 |
| Muc16 SEA11 module, uncleaved (with the Siderocalin fusion partner) (domain or fragment) | > 10 |
